Results as given in the supplement of paper PMC9732359.
± gives the uncertainty stated by the source.

Assay: protein stability index of a GFP-peptide fusion (yeast GPS) (PSI 1-4); higher = more stable; sorted into four equal gates, so the index is relative within each strain
Conditions: pdr5∆
How it was run: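 For each peptide, the protein stability index sums the read frequency in every gate after multiplying it by the gate number. Read frequencies came from plasmids that were PCR-amplified from each gate and Illumina-sequenced, with reads assigned to strains by barcodes. The gates were four equal bins of GFP/Cherry fluorescence ratio applied to mid-log yeast in leucine-free medium carrying a pooled library of tiled 17-residue yeast protein peptides fused downstream of GFP on a Cherry-expressing plasmid.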
Work on HDEKLSDELHNQSTIYE [LIN1] yielded a protein stability index of 2.74 ± 0.12.
Work on HDSSNGLFQVLHNFESV [NUT1] yielded a protein stability index of 3.15 ± 0.064.
In the case of HDVLQKLNTLSEILSFD [YML103C/NUP188], the protein stability index is reported as 3.2 ± 0.067.

Same assay, conditions: san1∆
GGGRVDKPLLKAGRAFH [RPL2A] showed a protein stability index of 2.95 ± 0.049.
Work on GGHSLEEISFSLSEGCD [PRP28] yielded a protein stability index of 1.93 ± 0.13.
For GGPWFTDGELDIEFINS [RPC34], the protein stability index was 2.55 ± 0.21.
Work on GGRYVYPVHEAHKGQIV [SNU114] yielded a protein stability index of 3.01 ± 0.054.
GGSGNGDDVVNDVQGID [RPP1] gave a protein stability index of 3.27 ± 0.079.
For GHIGAYLIVAGVDPTGS [PUP1], the protein stability index was 1.68 ± 0.16.
Work on GHVGSVQISNIPDIGDL [PRP8] yielded a protein stability index of 2.79 ± 0.058.
Sequence GIDPQDLKKLNLNVYIQ [CDC53] has a protein stability index of 1.42 ± 0.1.
In the case of GILRRKSESDELQMRSF [RRP4], the protein stability index is reported as 3.18 ± 0.11.
With GINPNTFRIFHNHDTGC [YDL088C/ASM4] the protein stability index was 1.4 ± 0.15.
With GIRIKGKIVGFDEFMNV [SME1] the protein stability index was 3.23 ± 0.076.
With GISKKTRIAGVVYHPSN [RPS8A] the protein stability index was 2.41 ± 0.032.
GKEFEARNLIEDEDDGE [RPC53] gave a protein stability index of 3.41 ± 0.1.
In the case of GKIPTLKISLIQIFRAH [PRP8], the protein stability index is reported as 1.33 ± 0.073.
Work on GKLVVSQEMVPRYFSEA [SIR3] yielded a protein stability index of 3.38 ± 0.079.
For GKVTDVRSTIKFQLKKV [RPL1A], the protein stability index was 3.01 ± 0.25.
GKVVGDKWESYLNLLQE [RPB10] gave a protein stability index of 2.49 ± 0.11.
Work on GLFGNKPALGSLGSSST [YGR119C/NUP57] yielded a protein stability index of 2.77 ± 0.048.
For GLFGNKPNNTANTGGGL [YGL172W/NUP49], the protein stability index was 3.49 ± 0.062.
GLLDLERVIVVTGFAEV [FAS2] gave a protein stability index of 2.21 ± 0.17.
For GLLSQAIGCIERSDLLP [YJR042W/NUP85], the protein stability index was 2.43 ± 0.09.
For GLRTENVLDYFAESPFF [MED6], the protein stability index was 2.94 ± 0.077.
GLSKEDDVRDFVIRREV [RPS6A] showed a protein stability index of 3.13 ± 0.13.
In the case of GLTNWAAAYATGLLIAR [RPL5], the protein stability index is reported as 1.14 ± 0.13.
GLVDENKVEAFKSLYTF [YAR002W/NUP60] showed a protein stability index of 3.39 ± 0.054.
GLWGFSTATRNVTMIDD [COR1] showed a protein stability index of 3.02 ± 0.064.
Work on GMPNMPGMPNMPGMPNM [SRP54] yielded a protein stability index of 3.13 ± 0.061.
GMRVGVDRSKYNIELPL [RPT1] gave a protein stability index of 3.52 ± 0.16.
For GMVKLNEYPVADAVTKD [REC8], the protein stability index was 3.28 ± 0.043.
Sequence GNAPATPSSDQNPLPTR [SOH1] has a protein stability index of 2.63 ± 0.077.
With GNENFEDFDVEHFSDEE [RPO26] the protein stability index was 2.95 ± 0.085.
GNGLVDENKVEAFKSLY [YAR002W/NUP60] showed a protein stability index of 3.53 ± 0.056.
In the case of GNIFADLLPNSFAKLVP [SMC2], the protein stability index is reported as 2.58 ± 0.05.
For GNMCRGGRMFAPTKTWR [RPL4A], the protein stability index was 3.04 ± 0.063.
Sequence GNRNSSSVFLPSRKDCM [BRR2] has a protein stability index of 3.2 ± 0.057.
GNSFNKSSNDTIEHAAD [YCG1] gave a protein stability index of 2.37 ± 0.047.
With GPEITPEEATTIFSVMV [PRP8] the protein stability index was 1.77 ± 0.22.
GPSIYKTDPAGYYVGYK [SCL1] showed a protein stability index of 3.33 ± 0.059.
Sequence GPVGKECADLWPRVASN [RPL23A] has a protein stability index of 3.17 ± 0.1.
GQEYPRIIGLSATLPNY [BRR2] gave a protein stability index of 1.96 ± 0.057.
With GQFVTLGCTLVTLLANV [RMP1] the protein stability index was 2.73 ± 0.1.
Sequence GQRPDRATTYEKLTMVF [SIN4] has a protein stability index of 1.53 ± 0.19.
Sequence GQVSMSQFNGSGNGSNP [PGD1] has a protein stability index of 2.93 ± 0.077.
Sequence GRETILSNFNADINLEE [SIR3] has a protein stability index of 2.85 ± 0.067.
GRKHVAALRTVKSLVDN [RPL9A] showed a protein stability index of 2.91 ± 0.092.
Sequence GRLEIFKIHTAKVKKTG [RPT4] has a protein stability index of 2.33 ± 0.19.
In the case of GRPETYIWRYLPAPPVC [RPO31], the protein stability index is reported as 1.17 ± 0.16.
With GRPRYDTFGEGIIITDQ [BRR2] the protein stability index was 2.62 ± 0.14.
Sequence GRSNEIVKTTTKQRLDA [PRP8] has a protein stability index of 2.63 ± 0.13.
In the case of GSADIGASVISLTKDKS [SIR4], the protein stability index is reported as 2.92 ± 0.084.
With GSAINHHRIFDSSAHFK [YMR129W/POM152] the protein stability index was 2.64 ± 0.075.
For GSDKQMFTQIYLERIEL [YML103C/NUP188], the protein stability index was 1.62 ± 0.23.
GSENKRGSLDSEHVFDY [NUT1] showed a protein stability index of 3.32 ± 0.2.
For GSFKYITARSAFVEFGA [SWP82], the protein stability index was 2.96 ± 0.069.
For GSGAANENPYNNGVSNL [COR1], the protein stability index was 3.15 ± 0.11.
GSGQPDNDTVVTNDDKS [SRB8] gave a protein stability index of 2.52 ± 0.15.
In the case of GSKISSNDLDKFFQKKI [YGL172W/NUP49], the protein stability index is reported as 1.7 ± 0.074.
Sequence GSKSDGSAATSGFEFSK [RPN1] has a protein stability index of 2.72 ± 0.14.
Work on GSRKVAGILRGYDIFLN [SMX2] yielded a protein stability index of 1.83 ± 0.15.
For GSVSEETELFEPGVLNT [ECM29], the protein stability index was 3.07 ± 0.096.
Work on GTAIGAIGAQSIGEPGT [RPO31] yielded a protein stability index of 2.61 ± 0.14.
GTCFGGSKLEDMSKILV [RET1] showed a protein stability index of 3.36 ± 0.065.
With GTGKPEAIHDMFTYSQE [RPN2] the protein stability index was 3.12 ± 0.071.
With GTILSSAGDDGKVRLWK [YGL100W/SEH1] the protein stability index was 3.49 ± 0.053.
Sequence GTLEGHNGWVTSLATSA [ASC1] has a protein stability index of 1.74 ± 0.15.
Sequence GTLLREDDNTPAGHAGN [YDL088C/ASM4] has a protein stability index of 3.09 ± 0.054.
GTNKDMILKLVCQVTKF [ECM29] showed a protein stability index of 1.28 ± 0.13.
For GTNNISQHGQGNNPSWV [YDL088C/ASM4], the protein stability index was 3.3 ± 0.058.
Sequence GTSTTHGSISPQEESVS [SIR3] has a protein stability index of 2.43 ± 0.053.
In the case of GTVSRVNRLLSVIPLKG [RRP4], the protein stability index is reported as 1.2 ± 0.14.
With GTYIQERNPTQRPQRRY [RPS10A] the protein stability index was 3.07 ± 0.034.
GVCNHAFHLHCINKWIK [HRT1] gave a protein stability index of 1.64 ± 0.068.
In the case of GVDLKLKYSKRRSLKKQ [CSN12], the protein stability index is reported as 3.27 ± 0.15.
In the case of GVEQLHYTGISQSACRE [SSN3], the protein stability index is reported as 2.66 ± 0.13.
Sequence GVTKGYKYKMRYVYAHF [RPL9A] has a protein stability index of 3.12 ± 0.12.
In the case of GVVQMVTDNKTPEMNVT [TAF14], the protein stability index is reported as 3.33 ± 0.092.
In the case of GVWDVDNPLRQIPHFNN [BRR2], the protein stability index is reported as 3.26 ± 0.065.
Work on GWKPYYKLFIWLVVPTI [YML031W/NDC1] yielded a protein stability index of 1.19 ± 0.09.
GYDIFLNVVLDDAMEIN [SMX2] gave a protein stability index of 3.17 ± 0.054.
Work on GYDKSGAHLLEFQPSGN [PRE5] yielded a protein stability index of 2.79 ± 0.21.
GYLIQVLLTFLQDELHK [YCS4] gave a protein stability index of 2.01 ± 0.12.
For HAKRKTVTSLDVVYALK [HHF1], the protein stability index was 3.19 ± 0.084.
HAMGGREGLIDTAVKTA [RPO21] showed a protein stability index of 1.23 ± 0.15.
HCIDYLRKNKLGYARFI [SMC4] showed a protein stability index of 1.14 ± 0.091.
HDEKLSDELHNQSTIYE [LIN1] showed a protein stability index of 2.73 ± 0.16.
Work on HDSSNGLFQVLHNFESV [NUT1] yielded a protein stability index of 2.79 ± 0.07.
HDVLQKLNTLSEILSFD [YML103C/NUP188] showed a protein stability index of 3.03 ± 0.051.

Same assay, conditions: ubr1∆
For GGGRVDKPLLKAGRAFH [RPL2A], the protein stability index was 2.99 ± 0.03.
Work on GGHSLEEISFSLSEGCD [PRP28] yielded a protein stability index of 2.25 ± 0.094.
With GGPWFTDGELDIEFINS [RPC34] the protein stability index was 3.17 ± 0.081.
